Measured values from the nanobody polyreactivity screen of Harvey et al. (2022).

Assay: yeast display, Sf9 membrane polyspecificity reagent, FACS + sequencing; frameworks hold sequencing errors
Procedure, shortened: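 Nanobodies came from a synthetic yeast display library in Saccharomyces cerevisiae BJ5465, induced with galactose for 36–48 hours and stained for 1 hour at 4 °C with 10% biotinylated, detergent-solubilized Sf9 membrane reagent. Cells were enriched on streptavidin microbeads and then FACS-sorted, with low and high (top ~1%) gates set on anti-HA fluorescence for expression and streptavidin fluorescence for reagent binding. Each polyreactivity label reflects the gate a clone came from. Genes were amplified by colony PCR, sequenced by MiSeq 2 × 250 and filtered by CDR length.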

| Sequence | polyreactivity (PSR sort gate) |
| --- | --- |
| QVQLVESAGGLVQAGGSLRLSCAASGIIFPVYAMGWYRQAPGKERELVAAITSSGGSTYYADSVKGRFTISRDNAKNTVYLQMNSLKPEDTAVYYFAAVRKSRFDYGGQGTQVTVSS | high polyreactivity |
| QVQLVESGGGLVQAGGSLRLSCADSGRIFSSNAIGWYRQAPGQERELVASISSTGSTKYADSVKGRFTISRDNAKNTVYVQMNSLKPEDTAVYYCAAGSYLWHFTFDYWGQGTQVTVSS | low polyreactivity |
| QDQLVQSRGGLVQAGGSLRISSAASGGTYFGYAMGWKRQAPGKERELVAAIRWSDGRTYYADSVKGRFTISRDNAKYTVYLQMNSLNPEDTAVYYCNADDARLFDYWGQGTQVTVSS | low polyreactivity |
| QVQLVESGGGLVQAGGSLRLSCAASGFSFRGYAMGWYRQAPGKERELVAAINYSGGSTYYADSVKGRFTISRDNAKNTVYLQMNSLKPEDTAVYYCAAGKRGDDDYWGQGTQVTVSS | high polyreactivity |
| QVQLVETGVGIVQAGGSLRLSCASSGSNCPLYAMGWYRQAPGKEREFVAAIRWIGGSTYYADSVKRRFTNSRDYAKNSVYLQMISLKPVDTAVYYCAAVYVVSAFDYWGQGTQVSVSS | low polyreactivity |
| QVQLVESGGGLVQAGGSLRLSCAASGGTFQRYVMGWYRQAPGKERELVAAISRSGSTYADSVKGRFTISRDNAKNTVYLQMNSLKPEDTAVYYCNVVRYYRYYLHGYDYWGQGTQVTVSS | high polyreactivity |
| QVQLVESGGGLVQAGGSLRLSCAASGSTFPRYGMGWYRQAPGKERELVATITNGAITYYADSVKGRFTISRDNAKNTVYLQMNSLKPEDTAVYYCAARHFQVPDYFPEYHYWGQGTQVTVSS | low polyreactivity |
| QVQLVESGGGLVQAGGSLRLSCAASGSTFWYYGMGWYRQAPGKERELVAAITRGGSTYYADSVKGRFTISRDNAKNTVYLQMNSLKPEDTAVYYCAAGISVRWSPSYYYWGQGTQVTVSS | high polyreactivity |
| QVQLVESGGGLVQAGGSLRLSCAASGRIFKLNAMGWYRQAPGNERELVAAITFAGGSTYYADSVKGRFTISRDIAKNTVYLQMNSLKPEDTAVYYCNADFSNVEMDYWGQGTQVNVSS | low polyreactivity |
| QVQLVESGGGLVQAGGSLRLSCAASGGTFWYYAMGWYRQAPGKERELVASISRGGSTNYADSVKGRFTISRDNAKNTVYLLMNSLKPEDTAVYYCNAGLRVGPRRYVDYEYDYWGQGTQVTVSS | low polyreactivity |
| QVQLVESGGGLVQAGGSLRLSCAASGTTFTRYAMGWYRQAPGKERELVAAISRTGGSRTYYADSVKGRFTISRDNAKNTVYLHMNSLKPEDTAVYYCAKGYWRYLGFLYFFPARDYWGQGTQVTVSS | high polyreactivity |
| QVQLVESGGGLVQAGGSLRLSCAASGSTFFEYTMGWYRQAPGKEREFVADIRGRDGSTSYADSVKGRFTISRDNAKNTVYLQMNSLKPEDTAVYYCNADVTRWTRSPWPYTYDYWGQGTQVTVSS | low polyreactivity |
| QVQLVESGGGLVQAGGSLRLSCAACGGTFGNYAMGWYRQAPGKDRELVAAISTRGGSTYYADSVKGRFTISRDNAKNTVYLQMNSLKPEDTAVYYCNARIKRPRGVYGGDYWGQGTQVTVSS | high polyreactivity |
| QVQLVESGGGLVQAGGSLRLSSAASGSIFQDNAMGWNRQAPGKERELVAAISVSGGSTYYADSVKGRFTISRDNAKNTVYLQMNSLKPEDTAVYYCAARARGYAWTYDYWGQGTQVTVSS | high polyreactivity |
| QVQLVDSAGGLVQAGGTLRLSCADSGFTCSYYAMGWYRQAPGTERELVAAITSGGSTDYADSVKGRFTISRDNEKNTFYLQMHSLKPVDTAVFYCKITPYYAVFYYWGPGTQVTVSS | high polyreactivity |
| QVQLVESGGGLVQAGGSLRLSCAASGRTFSQNAMGWYRQAPGKERELVAAISWSGGRTYYADSVKGRFTISRDNAKNTVYLQMNSLKPEDTAVYYCAKSQHRTYYYWGQGTQVTVSS | high polyreactivity |
| QVQLVESGAGLVQAGGSLRLSCAASGSTFSHNAMGWYRQEPGKESELVAAISWSGGGTYADSVKGRFTISRDNAKNTVYLQMNSLIPEDTAVYYCNKVSYPSTSSSWFDYWGKGTQVTVSS | low polyreactivity |
| PVQLVESWGGLDQAGGSLRLICAPSGSIFSVYAMGWYRQAPGKERELVAAISWSGGSTYYADSVKGRFTISRDNAKNTVYLQLNSLKPEDTAVYYCNAKHLPRHRDYWGQGTQVTVSS | low polyreactivity |
| QVQLVESGGGLVQAGGSLRLSCAASGNTFYRYAMGWYRQAPGKEREFVAGITSRGGSTSYADSVKGRFTISRDNAKNTVYLQMNSLKPEDTAVYYCAKKYFRPLRSYDYWGQGTQVTVSS | high polyreactivity |
| QVQLVESGGGLVQAGGSLRLSCAASGIIFSINAMGWYRQAPGKERELVAAISRSGGSTNYADSVKGRFTISRDNAKNTVYLQMNSLKPEDTAVYYCATVHRYSVWSHNYWGQGTQVTVSS | high polyreactivity |
| QVQLVESGGGLVQAGGSLRLSCAASGSIFLRYAMGWYRQAPGKERELVAAITTGGGSTYYADSVKGRFTISRDNAKNTVYLQMNSLKPEDTAVYYCAARIRQNPGGDNSWGQGTQVTVSS | low polyreactivity |
| QVQLVESGGGLVQAGGSLRLSCAASGSTFKYYAMGWYRQAPGKERELVAAISASGGTTYYADSVKGRFTISRDNAKNTVYVQMNSLKPEDTAVYDCAARYLTTFSRTDMEYWGQGTQVTVSS | low polyreactivity |
